Measurements reported in patent US10538782B2, “Plants having increased tolerance to herbicides” (BASF SE, priority 2015, dated 2020).

B1: L88AL92A: mutated TriA (SEQ ID NO: 2) in which position 88 is Ala and position 92 is Ala (protein)
chain: MQTLSIQHGTLVTMDQYRRVLGDSWVHVQDGRIVALGVHAESVPPPADRVIDARGKVVLPGFINAHTHVNQILLRGGPSHGRQLYDWAFNVAYPGQKAMRPEDVAVAVRLYCAEAVRSGITTINDNADSAIYPGNIEAAMAVYGEVGVRVVYARMFFDRMDGRIQGYVDALKARSPQVELCSIMEETAVAKDRITALSDQYHGTAGGRISVWPAPAITPAVTVEGMRWAQAFARDRAVMWTLHMAESDHDERLHWMSPAEYMECYGLLDERLQVAHCVYFDRKDVRLLHRHNVKVASQVVSNAYLGSGVAPVPEMVERGMAVGIGTDDGNCNDSVNMIGDMKFMAHIHRAVHRDADVLTPEKILEMATIDGARSLGMDHEIGSIETGKRADLILLDLRHPQTTPHHHLAATIVFQAYGNEVDTVLIDGNVVMENRRLSFLPPERELAFLEEAQSRATAILQRANMVANPAWRSL
modifications: Pseudomonas
B2: M155V: mutated TriA (SEQ ID NO: 2) in which position 155 is Val (protein)
chain: MQTLSIQHGTLVTMDQYRRVLGDSWVHVQDGRIVALGVHAESVPPPADRVIDARGKVVLPGFINAHTHVNQILLRGGPSHGRQLYDWLFNVLYPGQKAMRPEDVAVAVRLYCAEAVRSGITTINDNADSAIYPGNIEAAMAVYGEVGVRVVYARVFFDRMDGRIQGYVDALKARSPQVELCSIMEETAVAKDRITALSDQYHGTAGGRISVWPAPAITPAVTVEGMRWAQAFARDRAVMWTLHMAESDHDERLHWMSPAEYMECYGLLDERLQVAHCVYFDRKDVRLLHRHNVKVASQVVSNAYLGSGVAPVPEMVERGMAVGIGTDDGNCNDSVNMIGDMKFMAHIHRAVHRDADVLTPEKILEMATIDGARSLGMDHEIGSIETGKRADLILLDLRHPQTTPHHHLAATIVFQAYGNEVDTVLIDGNVVMENRRLSFLPPERELAFLEEAQSRATAILQRANMVANPAWRSL
modifications: Pseudomonas
B3: N70A: mutated TriA (SEQ ID NO: 2) in which position 70 is Ala (protein)
chain: MQTLSIQHGTLVTMDQYRRVLGDSWVHVQDGRIVALGVHAESVPPPADRVIDARGKVVLPGFINAHTHVAQILLRGGPSHGRQLYDWLFNVLYPGQKAMRPEDVAVAVRLYCAEAVRSGITTINDNADSAIYPGNIEAAMAVYGEVGVRVVYARMFFDRMDGRIQGYVDALKARSPQVELCSIMEETAVAKDRITALSDQYHGTAGGRISVWPAPAITPAVTVEGMRWAQAFARDRAVMWTLHMAESDHDERLHWMSPAEYMECYGLLDERLQVAHCVYFDRKDVRLLHRHNVKVASQVVSNAYLGSGVAPVPEMVERGMAVGIGTDDGNCNDSVNMIGDMKFMAHIHRAVHRDADVLTPEKILEMATIDGARSLGMDHEIGSIETGKRADLILLDLRHPQTTPHHHLAATIVFQAYGNEVDTVLIDGNVVMENRRLSFLPPERELAFLEEAQSRATAILQRANMVANPAWRSL
modifications: Pseudomonas
B4: L92V: mutated TriA (SEQ ID NO: 2) in which position 92 is Val (protein)
chain: MQTLSIQHGTLVTMDQYRRVLGDSWVHVQDGRIVALGVHAESVPPPADRVIDARGKVVLPGFINAHTHVNQILLRGGPSHGRQLYDWLFNVVYPGQKAMRPEDVAVAVRLYCAEAVRSGITTINDNADSAIYPGNIEAAMAVYGEVGVRVVYARMFFDRMDGRIQGYVDALKARSPQVELCSIMEETAVAKDRITALSDQYHGTAGGRISVWPAPAITPAVTVEGMRWAQAFARDRAVMWTLHMAESDHDERLHWMSPAEYMECYGLLDERLQVAHCVYFDRKDVRLLHRHNVKVASQVVSNAYLGSGVAPVPEMVERGMAVGIGTDDGNCNDSVNMIGDMKFMAHIHRAVHRDADVLTPEKILEMATIDGARSLGMDHEIGSIETGKRADLILLDLRHPQTTPHHHLAATIVFQAYGNEVDTVLIDGNVVMENRRLSFLPPERELAFLEEAQSRATAILQRANMVANPAWRSL
modifications: Pseudomonas
B5: N70N: TriA (melamine deaminase, SEQ ID NO: 2) with position 70 unchanged, apparently the wildtype reference (protein)
chain: MQTLSIQHGTLVTMDQYRRVLGDSWVHVQDGRIVALGVHAESVPPPADRVIDARGKVVLPGFINAHTHVNQILLRGGPSHGRQLYDWLFNVLYPGQKAMRPEDVAVAVRLYCAEAVRSGITTINDNADSAIYPGNIEAAMAVYGEVGVRVVYARMFFDRMDGRIQGYVDALKARSPQVELCSIMEETAVAKDRITALSDQYHGTAGGRISVWPAPAITPAVTVEGMRWAQAFARDRAVMWTLHMAESDHDERLHWMSPAEYMECYGLLDERLQVAHCVYFDRKDVRLLHRHNVKVASQVVSNAYLGSGVAPVPEMVERGMAVGIGTDDGNCNDSVNMIGDMKFMAHIHRAVHRDADVLTPEKILEMATIDGARSLGMDHEIGSIETGKRADLILLDLRHPQTTPHHHLAATIVFQAYGNEVDTVLIDGNVVMENRRLSFLPPERELAFLEEAQSRATAILQRANMVANPAWRSL
modifications: Pseudomonas
B6: D128I: mutated TriA (SEQ ID NO: 2) in which position 128 is Ile (protein)
chain: MQTLSIQHGTLVTMDQYRRVLGDSWVHVQDGRIVALGVHAESVPPPADRVIDARGKVVLPGFINAHTHVNQILLRGGPSHGRQLYDWLFNVLYPGQKAMRPEDVAVAVRLYCAEAVRSGITTINDNAISAIYPGNIEAAMAVYGEVGVRVVYARMFFDRMDGRIQGYVDALKARSPQVELCSIMEETAVAKDRITALSDQYHGTAGGRISVWPAPAITPAVTVEGMRWAQAFARDRAVMWTLHMAESDHDERLHWMSPAEYMECYGLLDERLQVAHCVYFDRKDVRLLHRHNVKVASQVVSNAYLGSGVAPVPEMVERGMAVGIGTDDGNCNDSVNMIGDMKFMAHIHRAVHRDADVLTPEKILEMATIDGARSLGMDHEIGSIETGKRADLILLDLRHPQTTPHHHLAATIVFQAYGNEVDTVLIDGNVVMENRRLSFLPPERELAFLEEAQSRATAILQRANMVANPAWRSL
modifications: Pseudomonas

System: Soybean cv Jake
Assay: Herbicide tolerance test of transgenic soybean events, roots of cuttings treated via nutrient solution with the herbicide
Type: in vivo
Details: transgenic plants expressing the TriA variant, herbicide treatment; 0% no injury, 100% complete death; herbicide and species not given
Protocol: Binary vectors are generated as described in EXAMPLE 9. Soybean cv Jake are transformed as previously described by Siminszky et al., Phytochem Rev. 5:445-458 (2006). After regeneration, transformants are transplanted to soil in small pots, placed in growth chambers (16 hr day/8 hr night; 25° C. day/23° C. night; 65% relative humidity; 130-150 microE m-2 s-1) and subsequently tested for the presence of the T-DNA via Taqman analysis. After a few weeks, healthy, transgenic positive, single copy events are transplanted to larger pots and allowed to grow in the growth chamber. An optimal shoot for cutting is about 3-4 inches tall, with at least two nodes present. Each cutting is taken from the original transformant (mother plant) and dipped into rooting hormone powder (indole-3-butyric acid, IBA). The cutting is then placed in oasis wedges inside a bio-dome. The mother plant is taken to maturity in the greenhouse and harvested for seed. Wild type cuttings are also taken simultaneously to serve as negative controls. The cuttings are kept in the bio-dome for 5-7 days. 7-10 days after transfer to oasis wedges, the roots are treated via nutrient solution with the herbicide. Typical phytotox symptoms, like club shaped root, are evaluated 3-4 days after treatment. Less or no injury of transgenic plants compared to wildtype plants are interpreted as herbicide tolerance.

Point of comparison: B5, “Root injury [%]” value 80%. Against it:
- B1 — lower, 0%
- B2 — lower, 10%
- B3 — lower, 0%
- B4 — lower, 50%
- B6 — lower, 0%
